Source: paper PMC9121323, “Using fluorescence anisotropy to monitor chaperone dispersal of RNA-binding protein condensates”

Molecular target: Pab1 monomer (poly(A)-binding protein) (Saccharomyces cerevisiae, UniProt P04147 1-577)
Test: fluorescence anisotropy; monomer calibration, titration regime; Kd cannot be determined; 1x disaggregation buffer (composition not in the material), 30 C, 15 uL samples, fluorescein ex/em 485/535 nm; 0.2 uM A19 RNA used for gain setting
Settings: protein: recombinant; tags: 8xHis-TEV site tag, removed by TEV protease; label: 5' 6-FAM; single strand

Chain of Pab1 monomer (poly(A)-binding protein) (P04147 whole entry): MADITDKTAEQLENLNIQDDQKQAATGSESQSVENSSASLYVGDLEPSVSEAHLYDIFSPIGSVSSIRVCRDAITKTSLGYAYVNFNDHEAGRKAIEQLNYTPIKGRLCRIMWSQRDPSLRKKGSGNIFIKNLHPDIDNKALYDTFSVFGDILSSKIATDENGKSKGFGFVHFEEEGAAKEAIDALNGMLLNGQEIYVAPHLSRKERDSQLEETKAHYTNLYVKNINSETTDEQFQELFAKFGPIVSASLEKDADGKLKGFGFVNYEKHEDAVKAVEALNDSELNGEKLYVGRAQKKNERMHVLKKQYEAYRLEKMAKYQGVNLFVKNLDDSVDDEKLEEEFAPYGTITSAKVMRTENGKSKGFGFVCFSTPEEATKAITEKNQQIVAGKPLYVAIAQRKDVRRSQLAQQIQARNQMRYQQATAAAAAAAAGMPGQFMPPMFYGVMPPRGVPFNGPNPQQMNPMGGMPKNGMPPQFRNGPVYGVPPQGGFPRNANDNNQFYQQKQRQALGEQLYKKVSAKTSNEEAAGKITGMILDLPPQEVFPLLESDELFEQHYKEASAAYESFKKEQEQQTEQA

AAAAAAAAAAAAAAAAAAA (ssRNA) [Fluorescein-A19 RNA]: binds.
